Experimental data taken from US6518063.

Target: OSF2/CBFA1b (lacks 22 aa of exon 8) deletion of 22 aa encoded by exon 8 (Homo sapiens) (UniProt Q13950)
Assay: cell_activity
Settings: p6OSE2-luc, F9 cells

OSF2/CBFA1b (lacks 22 aa of exon 8) deletion of 22 aa encoded by exon 8 (Homo sapiens), sequence (Q13950 whole entry, stated change not applied): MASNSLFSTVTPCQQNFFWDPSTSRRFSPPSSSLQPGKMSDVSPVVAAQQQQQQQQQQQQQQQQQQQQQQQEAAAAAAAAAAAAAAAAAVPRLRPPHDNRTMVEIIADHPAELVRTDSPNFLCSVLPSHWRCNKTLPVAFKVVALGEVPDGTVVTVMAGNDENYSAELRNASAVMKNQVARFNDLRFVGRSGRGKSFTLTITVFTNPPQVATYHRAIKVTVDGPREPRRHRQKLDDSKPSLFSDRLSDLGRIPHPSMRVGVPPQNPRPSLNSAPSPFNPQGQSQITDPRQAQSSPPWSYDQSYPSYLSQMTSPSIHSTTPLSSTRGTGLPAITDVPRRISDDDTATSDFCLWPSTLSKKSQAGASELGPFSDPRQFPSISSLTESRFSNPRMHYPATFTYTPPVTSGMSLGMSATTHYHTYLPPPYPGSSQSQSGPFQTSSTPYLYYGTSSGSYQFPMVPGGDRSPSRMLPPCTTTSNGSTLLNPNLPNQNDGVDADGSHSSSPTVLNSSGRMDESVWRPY

AGCTGCAATCACCAACCACAGCA (double strand) [Osteocalcin (OG2) OSE2]
activity (fold activation): 40
